B1: CB6 (antibody, V domains shown)
VH: EVQLVESGGGLVQPGGSLRLSCAASGFTVSSNYMSWVRQAPGKGLEWVSVIYSGGSTFYADSVKGRFTISRDNSMNTLFLQMNSLRAEDTAVYYCARVLPMYGDYLDYWGQGTLVTVSS
VL: not shown
notes: source: produced and purified as previously described (29)
B2: RGN10987 (antibody, V domains shown)
VH: QVQLVESGGGVVQPGRSLRLSCAASGFTFSNYAMYWVRQAPGKGLEWVAVISYDGSNKYYADSVKGRFTISRDNSKNTLYLQMNSLRTEDTAVYYCASGSDYGDYLLVYWGQGTLVTVSS
VL: QSALTQPASVSGSPGQSITISCTGTSSDVGGYNYVSWYQQHPGKAPKLMIYDVSKRPSGVSNRFSGSKSGNTASLTISGLQSEDEADYYCNSLTSISTWVFGGGTKLTVL
B3: RGN10933 (antibody, V domains shown)
VH: QVQLVESGGGLVKPGGSLRLSCAASGFTFSDYYMSWIRQAPGKGLEWVSYITYSGSTIYYADSVKGRFTISRDNAKSSLYLQMNSLRAEDTAVYYCARDRGTTMVPFDYWGQGTLVTVSS
VL: DIQMTQSPSSLSASVGDRVTITCQASQDITNYLNWYQQKPGKAPKLLIYAASNLETGVPSRFSGSGSGTDFTFTISGLQPEDIATYYCQQYDNLPLTFGGGTKVEIK

molecular target: SARS-CoV-2 RBD (Wuhan-1) RBD-FC fusion protein (SARS-CoV-2, UniProt P0DTC2); assay: SPR; conditions: both partners purified

Binder | binding result
B1 | binds
B2 | binds
B3 | binds

Source: PMC8212047 (Frontiers in Immunology, 2021)
